Three molecules from US12214052 (dated 2025) can be followed below.

As a reminder, the Kd is the concentration at which binding is half-saturated. A high value points to weaker binding.

Assay [1] concerns the target CSP-NPNA5.5-10x-1210 Fab. The assay is described as follows: ITC. (In general: Isothermal titration calorimetry measures the heat released or taken up as one component is titrated into another.)
For assay [2], the target named is CSP-NPNA5.5-12x-1210 Fab. The assay is described as follows: ITC.
In assay [3] the target is CSP-NPNA5.5-8x-1210 Fab. The assay is described as follows: ITC.
Assay [4] concerns the target CSP-NPNA5.5-12x-1210 Fab. The assay is described as follows: ITC. This is another data set of the same source.
Assay [5] concerns the target CSP-NPNA5.5-10x-1210 Fab. The experiment in a line: ITC. This is another data set of the same source.
Assay [6] has as its target CSP-NPNA5.5-8x-1210 Fab. The experiment in a line: ITC. The source holds these as a separate data set.
Assay [7] deals with full length PfCSP (NF54 strain) (Plasmodium falciparum (NF54 strain), UniProt P19597 20-384). The assay is described as follows: BLI; avid. In general terms: In BLI a coated tip is dipped into the sample, and binding shifts an interference pattern.
full length PfCSP (NF54 strain), sequence (P19597 20-384): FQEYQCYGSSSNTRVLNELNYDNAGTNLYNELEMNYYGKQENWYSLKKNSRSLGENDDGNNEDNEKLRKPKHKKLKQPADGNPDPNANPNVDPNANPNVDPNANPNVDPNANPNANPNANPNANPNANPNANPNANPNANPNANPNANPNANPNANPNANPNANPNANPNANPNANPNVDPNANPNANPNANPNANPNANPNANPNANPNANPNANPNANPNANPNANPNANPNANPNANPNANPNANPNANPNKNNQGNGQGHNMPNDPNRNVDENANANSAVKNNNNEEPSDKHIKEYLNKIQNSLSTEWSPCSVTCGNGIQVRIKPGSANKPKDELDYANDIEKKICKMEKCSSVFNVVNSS

B1: 1210 Fab (Fab, V domains shown)
VH: QVQLVESGGGVVQPGRSLRLSCAASGFTFSNYGMHWVRQAPGKGLEWVAVIWYDGSKKYYADSVKGRFTISRDNSKNTLYLQMNSLRAEDTAVYYCARVRDSSDYYGDAFDIWGQGTMVTVSS
VL: DIQMTQSPSTLSASVGDRVTITCRASQSISSWLAWYQQKPGKAPKLLIYKASNLESGVPLRFSGSGSGTEFTLTISSLQPDDFATYYCQQYNNYWTFGQGTKVEIK
In the case of B1, the dissociation constant Kd in assay [1] amounted to 456 nM; in assay [2] it was 174 nM; in assay [3], 333 nM. For the same molecule, the Ka is 5.73e+06 M⁻¹ in assay [4], 2.19e+06 M⁻¹ in assay [5] and 3e+06 M⁻¹ in assay [6].

B2: antibody 1210 (IgG) (antibody, V domains shown)
VH: QVQLVESGGGVVQPGRSLRLSCAASGFTFSNYGMHWVRQAPGKGLEWVAVIWYDGSKKYYADSVKGRFTISRDNSKNTLYLQMNSLRAEDTAVYYCARVRDSSDYYGDAFDIWGQGTMVTVSS
VL: DIQMTQSPSTLSASVGDRVTITCRASQSISSWLAWYQQKPGKAPKLLIYKASNLESGVPLRFSGSGSGTEFTLTISSLQPDDFATYYCQQYNNYWTFGQGTKVEIK
For the molecule B2, the Kd in assay [7] is below 0.001 nM.

B3: 1210_YY IgG (antibody, V domains shown)
VH: QVQLVESGGGVVQPGRSLRLSCAASGFTFSNYGMHWVRQAPGKGLEWVAVIWYDGSKKYYADSVKGRFTISRDNSKNTLYLQMNSLRAEDTAVYYCARVRDSSYYYGDAFDIWGQGTMVTVSS
VL: DIQMTQSPSTLSASVGDRVTITCRASQSISSWLAWYQQKPGKAPKLLIYKASNLESGVPLRFSGSGSGTEFTLTISSLQPDDFATYYCQQYYNYWTFGQGTKVEIK
B3 yielded a Kd in assay [7] of 0.66 nM.
